Data published in doi:10.1101/489898.

Target: horse liver alcohol dehydrogenase (horse)
Assay: cryo-EM structure

“horse liver alcohol dehydrogenase (enzyme)” gave a stoichiometry N of 2.
